In PMC4542195 (mBio, 2015):

Target: the molecule itself
Test: SEC

B1: VanTG catalytic (C-terminal cytoplasmic) domain, residues 339 to 712, as used in solution (size excl (domain or fragment)
chain: TADTDRAYLEINLNNLEHNVNTLQKAMSPKCELMAVVKAEAYGHGMYEVTTYFEPIGVFYLAVATIDEGIRLRKYGIFSEILILGYTSPSRAKELCKFELTQTLIDYRYLLLLNKQGYDIKAHIKIDTGMHRLGFSTEDKDKILAAFFLKHIKVAGIFTHLCAADSLEEKEVAFTNKPIGSFYKVLDWPKSSGLNIPKVNIQTSYGLWNIQSWNVIYQSGVALYGVLRSTNDKTKLETDLRACSFLKAKVVLIRKIKQGGSVGYSRAFTATRDSLIAILPIGYADGFPRNLSCGNSYVLIGGRQAPIVGKICMDQLAVDVTDIPNVKTGSIATLIGKDGKEEITAPMVAESAESITNELLSRMEHRLNIIRRA
stoichiometry N: 2
